Patent US20220143136A1, “USE OF ANNEXINS IN PREVENTING AND TREATING MUSCLE MEMBRANE INJURY” (NORTHWESTERN UNIVERSITY, priority 2018, published 2022)
“Also recorded” adds a separate entry of the source.

B1: recombinant annexin A6: recombinant human annexin A6 protein with C-terminal HIS tag (5186-A6-050, R&D systems); mouse protein from Northwestern core in one cohort (protein, UniProt P08133 2-673, looked up)
Annexin A6: AKPAQGAKYRGSIHDFPGFDPNQDAEALYTAMKGFGSDKEAILDIITSRSNRQRQEVCQSYKSLYGKDLIADLKYELTGKFERLIVGLMRPPAYCDAKEIKDAISGIGTDEKCLIEILASRTNEQMHQLVAAYKDAYERDLEADIIGDTSGHFQKMLVVLLQGTREEDDVVSEDLVQQDVQDLYEAGELKWGTDEAQFIYILGNRSKQHLRLVFDEYLKTTGKPIEASIRGELSGDFEKLMLAVVKCIRSTPEYFAERLFKAMKGLGTRDNTLIRIMVSRSELDMLDIREIFRTKYEKSLYSMIKNDTSGEYKKTLLKLSGGDDDAAGQFFPEAAQVAYQMWELSAVARVELKGTVRPANDFNPDADAKALRKAMKGLGTDEDTIIDIITHRSNVQRQQIRQTFKSHFGRDLMTDLKSEISGDLARLILGLMMPPAHYDAKQLKKAMEGAGTDEKALIEILATRTNAEIRAINEAYKEDYHKSLEDALSSDTSGHFRRILISLATGHREEGGENLDQAREDAQVAAEILEIADTPSGDKTSLETRFMTILCTRSYPHLRRVFQEFIKMTNYDVEHTIKKEMSGDVRDAFVAIVQSVKNKPLFFADKLYKSMKGAGTDEKTLTRIMVSRSEIDLLNIRREFIEKYDKSLHQAIEGDTSGDFLKALLALCGGED
modifications: C-terminal His tag
notes: recombinant human annexin A6 protein with C-terminal HIS tag (5186-A6-050, R&D systems); mouse protein from Northwestern core in one cohort
B2: annexin A6: annexin A6 with carboxyl-terminal turboGFP or tdTomato tag, expressed from plasmid electroporated into myofibers (protein, UniProt P14824 2-673, looked up)
Annexin A6: AKIAQGAMYRGSVHDFPEFDANQDAEALYTAMKGFGSDKESILELITSRSNKQRQEICQNYKSLYGKDLIEDLKYELTGKFERLIVNLMRPLAYCDAKEIKDAISGVGTDEKCLIEILASRTNEQMHQLVAAYKDAYERDLESDIIGDTSGHFQKMLVVLLQGTRENDDVVSEDLVQQDVQDLYEAGELKWGTDEAQFIYILGNRSKQHLRLVFDEYLKTTGKPIEASIRGELSGDFEKLMLAVVKCIRSTPEYFAERLFKAMKGLGTRDNTLIRIMVSRSELDMLDIREIFRTKYEKSLYSMIKNDTSGEYKKALLKLCGGDDDAAGQFFPEAAQVAYQMWELSAVSRVELKGTVCAANDFNPDADAKALRKAMKGIGTDEATIIDIVTHRSNAQRQQIRQTFKSHFGRDLMADLKSEISGDLARLILGLMMPPAHYDAKQLKKAMEGAGTDEKTLIEILATRTNAEIRAINEAYKEDYHKSLEDALSSDTSGHFRRILISLATGNREEGGENRDQAQEDAQVAAEILEIADTPSGDKTSLETRFMTVLCTRSYPHLRRVFQEFIKKTNYDIEHVIKKEMSGDVKDAFVAIVQSVKNKPLFFADKLYKSMKGAGTDEKTLTRVMVSRSEIDLLNIRREFIEKYDKSLHQAIEGDTSGDFMKALLALCGGED
modifications: C-terminal turboGFP or tdTomato tag
notes: annexin A6 with carboxyl-terminal turboGFP or tdTomato tag, expressed from plasmid electroporated into myofibers

How the values were obtained:
[1] = system: Sgcg-null mice; test: Anti-HIS immunofluorescence localization after systemic injection, Sgcg-null versus wildtype; format: in vivo, mouse
Method: Immunofluorescence microscopy. Mice were systemically injected with recombinant annexin A6 with a C-terminal HIS tag (R&D). Muscle was harvested and flash frozen. Muscle sections (10 μm thick) from the center of frozen-embedded muscles were collected on the cryostat (chamber, −20° C.; sample, −15° C.; catalog number CM1950; Leica, Wetzlar, Germany) for immunostaining. Tissues were fixed with 4% paraformaldehyde for 10 minutes on ice. Block and permeabilization were with 0.1% Triton (catalog number X-100; Sigma-Aldrich), 10% fetal bovine serum, and PBS for 60 minutes. For laminin detection, anti-laminin antibody was used at a dilution of 1:100 and for HIS detection, anti-HIS antibody was used at 1:100 overnight at 4° C. Hoechst labelled nuclei. Sections were PBS rinsed, incubated with secondary antibody for 1 hour, PBS rinsed, and mounted. Imaging was performed using a Zeiss Axio Observer A1 microscope (Zeiss, Oberkochen, Germany).

[2] = system: mdx/hLTBP4 dystrophic muscle; test: Anti-HIS immunofluorescence localization after systemic injection, mdx/hLTBP4; format: in vivo, mouse; details: 6 hours post systemic injection, vs PBS
Method: Immunofluorescence microscopy. Sections (10 μm thick) from the center of frozen-embedded muscles were collected on the cryostat (chamber, −20° C.; sample, −15° C.; catalog number CM1950; Leica, Wetzlar, Germany) for immunostaining. Tissues were fixed with 4% paraformaldehyde for 10 minutes on ice. Block and permeabilization were with 0.1% Triton (catalog number X-100; Sigma-Aldrich), 10% fetal bovine serum, and PBS for 60 minutes. For dystrophin detection, anti-dystrophin (ab15277; Abcam, Cambridge, Mass.) was used at a dilution of 1:100 overnight at 4° C. Sections were PBS rinsed, incubated with secondary antibody goat anti rabbit (A11008, Invitrogen) for 1 hour, PBS rinsed, and mounted in vectashield with DAPI (H-1200, Vector Laboratories). Imaging was performed using a Zeiss Axio Observer A1 microscope (Zeiss, Oberkochen, Germany), using a 10× objective. ZEN software (Zeiss, Jena, Germany) was used for acquiring images. Fluorescence quantitation and muscle area were performed using FIJI (NIH). Surface plots were created in FIJI (NIH). Fluorescence volume was quantified using Imaris Software v9.1.2.
Immunofluorescence microscopy. Mice were systemically injected with recombinant annexin A6 with a C-terminal HIS tag (R&D). Muscle was harvested and flash frozen. […]

[3] = system: myofibers; test: Bleb formation and intracellular Ca2+ fluorescence (GCaMP5G, Fluo-4) after laser injury with annexin overexpression; format: cell-based, mouse; details: for internal GCaMP5G Ca2+ fluorescence at the site of injury: vs GCaMP5G alone
Method: (§1) Electroporation, myofiber isolation, laser injury, cap and vesicle measurement. Flexor digitorum brevis (FDB) fibers were transfected with endo-free plasmid DNA by in vivo electroporation. Methods were described previously in (Demonbreun and McNally, 2015; Demonbreun et al., 2016b; DiFranco et al., 2009). Z-stack projections were acquired from consecutive acquisitions after the final time-lapse frame, approximately 4 minutes post damage, with a […] step size between slices. Z-stack renderings were constructed in FIJI. Measurement of the cap area and feret diameter were conducted from a single slice near the middle of the z-stack using FIJI imaging tools. Fibers expressing similar levels of tagged or GCaMP5G protein were compared. GCaMP5G Ca^2+ fluorescence was measured from the acquired timelapse images, using a standard rectangular ROI, placed inside the myofiber below the site of damage using FIJI. Fluorescence was expressed as F/F0. External vesicle number and GCaMP5G area were measured from endpoint z-stacks and max projection images using FIJI. Vesicles were considered external if they were found outside the sarcolemma assessed in brightfield and fluorescent channels. All measurements were acquired from myofibers isolated from at least n≥3 mice, n≥3 myofibers per mouse.
as §1, with “(Demonbreun A R, Quattrocelli M, Barefield D Y, Allen M V, Swanson K E,” for “(Demonbreun”, “McNally E M. An actin-dependent annexin complex mediates plasma membrane repair in muscle. The Journal of cell biology. 2016; 213(6):705-18; Demonbreun A R, and McNally E M. DNA Electroporation, Isolation and Imaging of Myofibers. Journal of visualized experiments: JoVE.” for “McNally,”, “106(106):e53551;” for “Demonbreun et al., 2016b;”, “M, Quinonez M, Capote J, and Vergara J. DNA transfection of mammalian skeletal muscles using in vivo electroporation. Journal of visualized experiments: JoVE. 2009; 32(32)).” for “et al., 2009).”
Calcium and pH indicator dye measurements. Wildtype FDBs were isolated and plated in Ringers on Matek glass-bottom dishes as described above. Twenty minutes prior to imaging, myofibers were loaded with Fluo-4 AM at 37° C. (F10489, ThermoFisher Scientific, Waltham, Mass.) or pHrodo AM (P35373, ThermoFisher Scientific, Waltham, Mass.) as described in the instruction manual. Fibers were rinsed once with Ringers then subsequently damaged and imaged on the Nikon A1R GaSP, as described above. Fluorescence intensity was measured using FIJI (NIH). phRodo change in fluorescence intensity was calculated as F/F0. Data was acquired from n=3 mice per experiment from multiple myofibers per mouse. […]

Molecule	anti-HIS immunofluorescence at the muscle membrane ([1]; Sgcg-null (LGMD2C) muscle)	anti-HIS immunofluorescence at the muscle membrane ([1]; Sgcg-null (LGMD2C) muscle, listed as rANXA6)	anti-HIS immunofluorescence at the muscle membrane ([1]; uninjured wildtype muscle)	anti-HIS staining at the sarcolemma / plasma membrane ([2]; listed as rANXA6)	anti-HIS staining at the sarcolemma / plasma membrane ([2]; listed as recombinant annexin A6-HIS)	internal Fluo-4 Ca2+ fluorescence at the site of membrane injury ([3]; annexin A6 overexpression vs control myofibers)	size of GCaMP5G-containing blebs ([3]; annexin overexpression vs annexin A1, A2 or GCaMP5G alone)	number of extracellular (GCaMP5G-positive) blebs at the membrane lesion ([3]; annexin overexpression vs annexin A1 overexpression or GCaMP5G alone)	internal GCaMP5G Ca2+ fluorescence at the site of injury ([3]; first 20 seconds post injury)	internal GCaMP5G Ca2+ fluorescence at the site of injury ([3]; over 240 seconds of imaging)	internal GCaMP5G Ca2+ fluorescence at the site of injury ([3]; over 240 seconds of imaging, listed as A6)
B1	localized to the muscle membrane	increased	minimal	localized to the plasma membrane	presence of recombinant annexin A6-HIS at the sarcolemma						
B2						Reduction; also recorded: significantly decreased	significantly larger	significantly more blebs	significant reduction	most significant reduction	significant reduction
